Measured values taken from the MegaScale stability set (Tsuboyama et al. 2023).

B1: 6YSE (parent)
chain: HERALMVNRLQKLTRMLRVHPDPKWKQEQQELIKRLK

Variants of: B1
Assay: folding stability dG (cDNA display proteolysis); higher = more stable
Settings: PBS, room temperature

Folding stability dG [kcal/mol]: each site, then its substitutions
H20: T 1.13 | E 0.232 | G -0.186 | M 1.06 | R 1.19 | W 1.39 | N 1.26 | Q 0.946 | K 1.57 | S 1.26 | F 1.39 | A 0.952 | Y 1.47 | V 0.774 | I 1.06 | D 1.3 | L 0.97
L13: V 0.655 | C -0.58 | I 1.07
R15: N 1 | W 0.914 | F 0.829 | Y 0.918 | I 1.14 | E 1.42 | G 0.365 | T 0.631 | Q 1.48 | L 1.31 | M 1.33 | A 1.32 | H 1.12 | D 1.01 | V 0.95
N8: R 2.01 | W 1.34 | Y 1.38 | K 2.4 | I 1.84 | H 1.47 | T 1.92 | G 1.23 | V 1.77 | Q 2.12 | L 1.75 | M 1.67 | S 1.67
L17: R -0.68 | S -0.127 | Y 0.234 | M 0.852 | C -0.743 | V -0.191 | Q -0.895 | I 1.09 | A -0.037 | N 0.006
W25: Q 0.755 | N 0.386 | D 0.337 | G 0.387 | F 1.25 | L 1.97 | M 1.71 | K 0.636 | V 1.22 | I 1.62 | S 0.206 | Y 1.32 | T 0.731 | A 0.973 | H 0.686 | R 0.719
Q29: S 0.65 | M 1.72 | T 0.863 | C 1.52 | H 0.663 | V 1.68 | L 1.85 | F 1.53 | E 0.805 | D -0.859 | I 1.69 | W 1.47 | R 1.47 | A 1.48 | Y 1.7
M16: W 1.26 | Q -0.015 | K 0.733 | A 0.312 | S -0.421 | I 0.699 | Y 0.489 | H -0.229 | L 1.35 | F 0.018 | R 0.261
P23: K 0.967 | I 0.608 | Y 0.554 | A 1.03 | V 0.701 | H 0.269 | D 0.676 | L 0.804 | N 0.238 | M 0.09 | Q 0.666 | T 0.669 | S 0.806 | W 0.75 | E 0.721 | F 0.718 | R 0.598 | G 0.641
P21: C 0.966 | V 0.805 | Y 2.16 | H 1.57 | K 1.04 | W 2.02 | Q 1.36 | F 2.15 | T 0.908 | I 0.664 | R 0.878 | A 1.18 | M 1.13 | E 1.09 | G 0.843 | N 1.51 | D 1.37 | L 0.688
T14: N 1.39 | D 0.505 | H 0.917 | I 1.35 | S 1.03 | M 1.21 | Y 1.15 | W 0.988 | G 0.779 | K 1.34 | Q 0.979 | R 1.3 | V 0.832 | E 1.19 | L 1.13 | A 1.32 | F 0.771
K12: G -0.272 | S 0.811 | M 1.49 | A 1.36 | I 1.43 | Y 2.31 | D 1 | T 1.3 | Q 1.71 | V 1.43 | R 1.3 | L 1.53 | W 2.78 | H 1.37 | F 2.26 | N 1.01
E28: Y 0.612 | W 0.824 | N -0.895 | M 0.854 | R -0.089 | L 0.849 | A 0.638 | S -0.485 | I 1.05 | F 0.366 | T -0.079 | D -0.285 | Q 0.317 | V 0.452
L10: I 0.954 | F -0.248 | M -0.327 | W -0.405 | Y 0.292 | V 0.163
Q30: D 0.872 | C 1.75 | I 1.37 | E 1.38 | A 1.07 | K 0.968 | H 0.978 | F 0.851 | G 0.68
K26: I 1.4 | S 0.461 | W 0.964 | Q 1.03 | D -0.129 | M 1.29 | C 0.732 | N 0.211 | G -0.052 | A 0.85 | F 1.53 | E 1.14 | T 0.715 | H 1.01 | L 1.45 | R 1.32 | Y 1.17 | V 1.16
R18: L 1.2 | K 1.36 | H 0.59 | S 0.989 | D 0.512 | A 1.45 | W 0.417 | M 1.29 | Y 0.492 | Q 1.19 | V 0.181 | N 0.669 | G 0.577 | F 0.738 | T 0.657 | E 0.715 | I 0.881
V19: A 1.21 | R 1.55 | N 1.44 | S 1.23 | L 1.48 | W 1.21 | D 1.13 | G 1.34 | Q 1.41 | K 1.55 | Y 1.57 | T 1.37 | M 1.37 | F 1.51 | E 1.19 | H 1.38 | I 1.51
Q11: I 2.12 | D 0.958 | M 1.73 | R 2.14 | A 1.54 | H 1.38 | Y 1.41 | E 1.08 | K 2.12 | L 1.69 | W 1.5 | T 1.09 | F 1.23 | G 0.69 | C 2.24 | N 1.34 | V 1.48 | S 1.1
Q27: G 0.59 | K 1.46 | A 1.6 | H 1.21 | W 0.767 | M 1.38 | D 0.957 | T 1.01 | L 1.62 | V 0.985 | I 1.22 | S 1.04 | R 1.23 | N 1.09 | F 1.14 | E 1.42 | Y 0.821
D22: F 1.07 | R 1.06 | H 1.3 | W 0.947 | E 0.749 | Y 1.14 | V 0.67 | G 0.117 | A 0.299 | T 1.13 | K 1.23 | M 0.675 | S 1.09 | I 0.677 | N 1.67 | L 1.22
K24: S 0.97 | I 1.32 | N 0.982 | G 0.85 | V 1.31 | D 0.986 | A 1.24 | E 1.01 | R 1.34 | L 1.11 | Q 1.22 | F 0.828 | Y 1.13 | T 1.3 | M 1.09 | W 0.63 | H 0.889
R9: M 0.818 | E 0.136 | Y 0.605 | C 1.19 | A -0.164 | H 0.157 | F 0.77 | L 0.938 | T -0.04 | V -0.415 | G -0.612 | Q 0.621 | S -0.602 | K 0.551 | W 0.91 | I 0.734
